Where “and” joins values, the source holds several entries; their conditions need not be identical. Equal entries are not always repeated.

Assay [1] has as its target T1, human ROR1 (human, UniProt Q01973 30-937).
T1 construct: whole, on cells; Endogenous ROR1 on ROR1-positive cells; also called tyrosine-protein kinase transmembrane receptor ROR1; neurotrophic tyrosine kinase, receptor-related 1
Briefly: flow cytometry on ROR1-positive RPMI8226 cells. Here is the method: a) Anti-ROR1 antibodies coming either from the immunization approach and/or from the screening of the recombinant in vitro library described above are analyzed by flow cytometry for binding to human ROR1 on HEK293-ROR1 cells. Briefly, cultured cells are harvested, counted and cell viability is evaluated using the Trypan Blue exclusion method. Viable cells are then adjusted to 2×10⁶ cells per ml in BSA-containing FACS Stain Buffer (BD Biosciences). 90 μl of this cell suspension are further aliquoted per well into a round-bottom 96-well plate. 10 μl of the anti-ROR1 antibodies or corresponding IgG control are added to the cell-containing wells to obtain final concentrations of 0.1 pM to 200 nM. All constructs and control IgG are used at the same molarity. […] The samples are resuspended in 200 μl/well FACS Stain Buffer and acquired and analyzed using an LSR II flow cytometer with FACSDiva® software (BD Biosciences). The mean fluorescence intensity (MFI) is plotted as a function of anti-ROR1 antibody concentration to obtain the binding curve and to calculate the effective antibody concentration to reach 50% of maximal binding (EC₅₀). […]
c) ROR1 expression was then assessed on B lymphocyte myeloma RPMI8226 cell lines by flow cytometry, using the methods described above.

For assay [2], the target named is T2, human CD3ε (human, UniProt P07766 23-207).
T2 construct: whole, on cells; On Jurkat cells as part of the TCR/CD3 complex; also called CD3 epsilon
T2 sequence (P07766 23-207): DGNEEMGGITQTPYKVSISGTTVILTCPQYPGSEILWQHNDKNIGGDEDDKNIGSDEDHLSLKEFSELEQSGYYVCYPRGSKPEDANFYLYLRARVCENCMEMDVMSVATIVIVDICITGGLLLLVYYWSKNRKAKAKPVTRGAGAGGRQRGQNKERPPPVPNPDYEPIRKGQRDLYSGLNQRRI
Briefly: flow cytometry on Jurkat T cells expressing human CD3. Here is the method:
a) Anti-ROR1/anti-CD3 T cell bispecific antibodies generated in Example 3 were also analyzed by flow cytometry for their binding properties to human ROR1 expressed on primary B-CLL cells or human CD3 expressed on human leukemic T cells Jurkat (ATCC TIB-152). Jurkat T cells were cultured in RPMI supplemented with 10% fetal calf serum. Briefly, cultured cells were harvested, counted and cell viability was evaluated using ViCell. Viable cells were then adjusted to 2×10⁶ cells per ml in FACS Stain Buffer (BD Biosciences) containing 0.1% BSA. 100 μl of this cell suspension were further aliquoted per well into a round-bottom 96-well plate. […] After incubation for 30 min at 4° C., cells were centrifuged (5 min, 350×g), washed twice with 150 μl/well BSA-containing FACS Stain Buffer (BD Biosciences), then cells were fixed using 100 ul BD Fixation buffer per well (#BD Biosciences, 554655) at 4° C. for 20 min, resuspended in 120 μl FACS buffer and analyzed using BD FACS CantoII. Binding of the anti-ROR1/anti-CD3 T cell bispecific antibodies to B-CLL cells and T cells were evaluated and the mean fluorescence intensity was determined gated on either ROR1-expressing B-CLL cells or CD3-expressing Jurkat T cells and plotted in histograms or dot plots. […]

T1 sequence (Q01973 30-937): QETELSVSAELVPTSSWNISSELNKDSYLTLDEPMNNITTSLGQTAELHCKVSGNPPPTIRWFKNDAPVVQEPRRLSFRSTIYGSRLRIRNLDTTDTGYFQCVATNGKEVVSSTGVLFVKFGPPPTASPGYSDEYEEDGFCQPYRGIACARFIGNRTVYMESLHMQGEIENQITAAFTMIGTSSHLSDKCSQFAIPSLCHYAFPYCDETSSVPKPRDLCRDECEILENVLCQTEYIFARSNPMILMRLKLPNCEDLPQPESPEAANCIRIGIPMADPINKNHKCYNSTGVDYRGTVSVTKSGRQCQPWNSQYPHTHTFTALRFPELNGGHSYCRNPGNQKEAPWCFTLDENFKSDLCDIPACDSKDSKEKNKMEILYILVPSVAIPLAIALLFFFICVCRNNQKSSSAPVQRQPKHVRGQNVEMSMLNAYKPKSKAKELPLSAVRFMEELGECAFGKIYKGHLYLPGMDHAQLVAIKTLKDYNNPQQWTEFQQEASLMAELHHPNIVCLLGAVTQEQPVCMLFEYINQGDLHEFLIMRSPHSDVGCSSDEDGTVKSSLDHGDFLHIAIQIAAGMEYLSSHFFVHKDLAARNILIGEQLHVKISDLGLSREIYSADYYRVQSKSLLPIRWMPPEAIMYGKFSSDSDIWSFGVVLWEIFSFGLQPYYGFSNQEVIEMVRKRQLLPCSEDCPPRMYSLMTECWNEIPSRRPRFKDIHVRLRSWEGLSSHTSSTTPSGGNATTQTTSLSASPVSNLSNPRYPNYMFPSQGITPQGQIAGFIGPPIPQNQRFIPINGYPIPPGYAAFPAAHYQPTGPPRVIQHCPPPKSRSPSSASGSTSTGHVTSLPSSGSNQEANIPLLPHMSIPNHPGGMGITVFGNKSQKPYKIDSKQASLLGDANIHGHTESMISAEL

B1: anti-ROR1 IgG1 antibody (antibody, V domains shown)
VH: QEQLVESGGRLVTPGGSLTLSCKASGFDFSAYYMSWVRQAPGKGLEWIATIYPSSGKTYYATWVNGRFTISSDNAQNTVDLQMNSLTAADRATYFCARDSYADDGALFNIWGPGTLVTISS
VL: ELVLTQSPSVSAALGSPAKITCTLSSAHKTDTIDWYQQLQGEAPRYLMQVQSDGSYTKRPGVPDRFSGSSSGADRYLIIPSVQADDEADYYCGADYIGGYVFGGGTQLTVLG
notes: Bivalent human IgG1 kappa; Alexa488-labelled in some assays; also called anti-ROR1 antibody; anti-ROR1 IgG antibody
For B1, in assay [1], the EC50 was 0.087 nM and 0.013 µg/mL. In assay [2], the binding result is on record as “no binding (tested: 3 nM to 500 nM)”.

Source of the values: patent US20160297881A1 (ENGMAB, published 2016).
